According to the supplement of paper PMC10567573:

B1: DCAF4 (parent)
chain: TTKCVRQYEGHVNEYAYLPLHVHE
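Also: lentivirally expressed fusions sorted by FACS into six bins by GFP to DsRed ratio, PSI derived from sequencing read proportions per bin multiplied by bin number.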

Variants of: B1
Assay: protein stability index of a GFP-peptide fusion (GPS, HEK-293T) (PSI 1-6); higher = more stable
Conditions: c terminus: a fixed tail appended
In the case of TTKCWRQYEGHVNEYAYLPLHVHE [V5W], the protein stability index is reported as 2.46.
For TTKCVRHYEGHVNEYAYLPLHVHE [Q7H], the protein stability index was 2.64.
For TTKCVRQYEGHVNEYHYLPLHVHE [A16H], the protein stability index was 3.05.
With TTKCVRQYEGHVNHYAYLPLHVHE [E14H] the protein stability index was 2.05.
In the case of TTKCVRQYEGHVNEYAYNPLHVHE [L18N], the protein stability index is reported as 3.15.
Variant TTKCVRQYTGHVNEYAYLPLHVHE [E9T] has a protein stability index of 1.91.
TTKCVRQYEGRVNEYAYLPLHVHE [H11R] gave a protein stability index of 2.44.
With TTKCVRQYWGHVNEYAYLPLHVHE [E9W] the protein stability index was 1.61.
Variant TTKCVRQYETHVNEYAYLPLHVHE [G10T] has a protein stability index of 2.57.
Work on TTKCVDQYEGHVNEYAYLPLHVHE [R6D] yielded a protein stability index of 2.87.
Variant TTKCVRQYEGHINEYAYLPLHVHE [V12I] has a protein stability index of 2.52.
In the case of TTKCVRQYEGHVNEYQYLPLHVHE [A16Q], the protein stability index is reported as 3.01.
With TTKHVRQYEGHVNEYAYLPLHVHE [C4H] the protein stability index was 3.19.
Work on TTKCVRQYEGHVNGYAYLPLHVHE [E14G] yielded a protein stability index of 2.29.
In the case of TTKCVRQYEGHVNEYAYLPLHVHI [E24I], the protein stability index is reported as 2.1.
TTKCVRQYEGHVNEYAYLPLHPHE [V22P] gave a protein stability index of 2.63.
Variant TTKCVMQYEGHVNEYAYLPLHVHE [R6M] has a protein stability index of 2.38.
Variant TTKCVRQYEGHVNDYAYLPLHVHE [E14D] has a protein stability index of 2.79.
In the case of KTKCVRQYEGHVNEYAYLPLHVHE [T1K], the protein stability index is reported as 2.84.
In the case of TTKCVRQEEGHVNEYAYLPLHVHE [Y8E], the protein stability index is reported as 4.03.
TTKCVRQYEGHVNEYAYLPLHGHE [V22G] showed a protein stability index of 2.13.
TMKCVRQYEGHVNEYAYLPLHVHE [T2M] gave a protein stability index of 2.52.
TTKCVRQYEGHQNEYAYLPLHVHE [V12Q] showed a protein stability index of 2.58.
In the case of TTYCVRQYEGHVNEYAYLPLHVHE [K3Y], the protein stability index is reported as 1.6.
TTKCVRNYEGHVNEYAYLPLHVHE [Q7N] showed a protein stability index of 2.54.
With TTKCVRQYEGHVNEYAYLPGHVHE [L20G] the protein stability index was 2.41.
TTKCVNQYEGHVNEYAYLPLHVHE [R6N] showed a protein stability index of 2.95.
TTKCVRQYEGHVNEYAYGPLHVHE [L18G] showed a protein stability index of 3.09.
TTNCVRQYEGHVNEYAYLPLHVHE [K3N] gave a protein stability index of 2.98.
TTKCVRQHEGHVNEYAYLPLHVHE [Y8H] gave a protein stability index of 2.64.
In the case of TTKCVRQYEGHVNEYAYLPLYVHE [H21Y], the protein stability index is reported as 1.9.
TTKCVRQYEGHVNEPAYLPLHVHE [Y15P] showed a protein stability index of 3.51.
TTKCVRQYEGHVVEYAYLPLHVHE [N13V] gave a protein stability index of 2.23.
TTKVVRQYEGHVNEYAYLPLHVHE [C4V] gave a protein stability index of 3.08.
Variant TTKCVRQYEGHVNEYAYLPLAVHE [H21A] has a protein stability index of 2.58.
TTKCYRQYEGHVNEYAYLPLHVHE [V5Y] gave a protein stability index of 1.82.
Work on TTKCVRQYGGHVNEYAYLPLHVHE [E9G] yielded a protein stability index of 2.55.
Work on TWKCVRQYEGHVNEYAYLPLHVHE [T2W] yielded a protein stability index of 2.43.
TTKCVRQYEGHVNEYAYLPLHTHE [V22T] gave a protein stability index of 3.12.
Variant TTKCVRGYEGHVNEYAYLPLHVHE [Q7G] has a protein stability index of 2.13.
With TTKCVRAYEGHVNEYAYLPLHVHE [Q7A] the protein stability index was 2.52.
TTKCVRQYEGHVNEYAWLPLHVHE [Y17W] gave a protein stability index of 2.69.
Variant TTKCVRQYEGHVNEYAYLPLKVHE [H21K] has a protein stability index of 2.16.
In the case of TTKCVRQYEGHCNEYAYLPLHVHE [V12C], the protein stability index is reported as 2.48.
Work on TTKCVRIYEGHVNEYAYLPLHVHE [Q7I] yielded a protein stability index of 2.17.
With TTKCVRQYEGHVNRYAYLPLHVHE [E14R] the protein stability index was 2.34.
In the case of TTKCVRLYEGHVNEYAYLPLHVHE [Q7L], the protein stability index is reported as 2.28.
TTKCVRQYEGHVNEYAYCPLHVHE [L18C] gave a protein stability index of 2.74.
For TTKCVRQYEGHVNEYAYLPPHVHE [L20P], the protein stability index was 3.31.
In the case of TTKCGRQYEGHVNEYAYLPLHVHE [V5G], the protein stability index is reported as 2.31.
In the case of TTKCIRQYEGHVNEYAYLPLHVHE [V5I], the protein stability index is reported as 2.17.
Work on TTKLVRQYEGHVNEYAYLPLHVHE [C4L] yielded a protein stability index of 2.86.
Variant TTKCVRKYEGHVNEYAYLPLHVHE [Q7K] has a protein stability index of 2.77.
For TTKCVRQYEGHVNEYAYLELHVHE [P19E], the protein stability index was 1.82.
With TTKCVRQYEGHVNEYAYLPLHVHM [E24M] the protein stability index was 1.84.
Variant TTKCVRQVEGHVNEYAYLPLHVHE [Y8V] has a protein stability index of 3.17.
Variant TTKCVRQYEGHVWEYAYLPLHVHE [N13W] has a protein stability index of 1.87.
Work on TTKCVRQYEPHVNEYAYLPLHVHE [G10P] yielded a protein stability index of 2.18.
Variant TTKCVRQYEDHVNEYAYLPLHVHE [G10D] has a protein stability index of 3.07.
TTKCVRQYELHVNEYAYLPLHVHE [G10L] showed a protein stability index of 2.11.
TTKCVRQYEGHVNEWAYLPLHVHE [Y15W] gave a protein stability index of 2.12.
Variant TTKCVRQYEGHVNEYAYQPLHVHE [L18Q] has a protein stability index of 3.16.
For TTKCVRSYEGHVNEYAYLPLHVHE [Q7S], the protein stability index was 2.75.
With TTKCDRQYEGHVNEYAYLPLHVHE [V5D] the protein stability index was 3.34.
With TTSCVRQYEGHVNEYAYLPLHVHE [K3S] the protein stability index was 2.71.
Work on TLKCVRQYEGHVNEYAYLPLHVHE [T2L] yielded a protein stability index of 2.15.
Variant TTKCVRQYEGHVTEYAYLPLHVHE [N13T] has a protein stability index of 2.64.
Variant TTKCVRQYEGHVNEYAYLFLHVHE [P19F] has a protein stability index of 1.71.
For TTKKVRQYEGHVNEYAYLPLHVHE [C4K], the protein stability index was 2.83.
With TTKCVRQYEGHVNEYAYMPLHVHE [L18M] the protein stability index was 2.82.
Work on TTKCVRQYEGDVNEYAYLPLHVHE [H11D] yielded a protein stability index of 2.88.
For TTKCVRQYEGNVNEYAYLPLHVHE [H11N], the protein stability index was 2.96.
Variant TTKCVRQYEGHVNEYAYLPLHVHP [E24P] has a protein stability index of 2.24.
In the case of TTKCVCQYEGHVNEYAYLPLHVHE [R6C], the protein stability index is reported as 2.53.
TTKCVRQYEGHVNTYAYLPLHVHE [E14T] gave a protein stability index of 2.23.
Work on TTKCVRQYEGHVNEYAYLPLHVTE [H23T] yielded a protein stability index of 2.37.
For TTKCVRQYEGHVNEYYYLPLHVHE [A16Y], the protein stability index was 1.87.
TTKCVRQYEGHVNEYAYLPLHIHE [V22I] showed a protein stability index of 2.42.
With TTKCVRQYEGHYNEYAYLPLHVHE [V12Y] the protein stability index was 2.52.
In the case of TTKCVRQYEGGVNEYAYLPLHVHE [H11G], the protein stability index is reported as 2.38.
In the case of TTKCVRQYEGHVNEYAYLRLHVHE [P19R], the protein stability index is reported as 1.91.
Variant TTKCVRQYEGHFNEYAYLPLHVHE [V12F] has a protein stability index of 2.11.
With TTKCVRQDEGHVNEYAYLPLHVHE [Y8D] the protein stability index was 3.75.
Work on TTKCVRQYEGLVNEYAYLPLHVHE [H11L] yielded a protein stability index of 1.95.
With TTKCVRQYECHVNEYAYLPLHVHE [G10C] the protein stability index was 2.61.
In the case of GTKCVRQYEGHVNEYAYLPLHVHE [T1G], the protein stability index is reported as 2.99.
Work on TTKIVRQYEGHVNEYAYLPLHVHE [C4I] yielded a protein stability index of 3.13.
Variant TTKCVRQYEGMVNEYAYLPLHVHE [H11M] has a protein stability index of 2.26.
TTKCVHQYEGHVNEYAYLPLHVHE [R6H] gave a protein stability index of 2.52.
In the case of TTKCVRQYEIHVNEYAYLPLHVHE [G10I], the protein stability index is reported as 1.43.
Variant TTKCVRQYEGSVNEYAYLPLHVHE [H11S] has a protein stability index of 2.6.
In the case of TTKCVRQMEGHVNEYAYLPLHVHE [Y8M], the protein stability index is reported as 2.89.
TTKCVRQYEGHVNEYAYLNLHVHE [P19N] showed a protein stability index of 2.33.
Variant TTKCVRQYEGHVNMYAYLPLHVHE [E14M] has a protein stability index of 1.43.
